These results are taken from CN110272489A.

The target in test [1] is 人TIM-3 (recombinant antigen of the ELISA of Example 3: TIM-3-hFc captured on goat-anti-hFc, or Tim-3-his coated directly) (human) (UniProt Q8TDQ0). As to the kind of experiment: ELISA of hybridoma supernatant on human TIM-3 (Example 3).
The target in test [2] is 狨猴(marmoset) Tim-3蛋白 (狨猴(marmoset)) (UniProt F7I881). The test can be described thus: ELISA, against ABTIM3 as reference. On the technique in general: ELISA stands for enzyme-linked immunosorbent assay.

B1: mab15 (鼠源抗体) (antibody, V domains shown)
VH: EVKLVESEGGLVQPGSSMKLSCTASGFTFSDYYMTWVRQVPEKGLEWVASINYDGRNTYYLDSLKSRFIISRDNAKNILYLQMSSLKSEDTATYYCARGYYYYGSSPNYFDYWGQGTTLTVSS
VL: DIQMTQSPASLSASVGETVTITCRASENIYSYLTWYQQKQGKSPQLLVYNAKTLAEGVPSRFSGSGSGTQFSLRINSLQPEDFGNYYCQQHYGTPLTFGAGTKLELK
For the molecule B1, in test [1], the ELISA 数值(OD450) is 1.14 OD450.

B2: 人源化ab32抗体 (全人源化抗体) (antibody, human IgG4 S228P, kappa, V domains shown)
VH: EVQLVESGGGLVKPGGSLRLSCAASGFTFSDYYMTWVRQAPGKGLEWVSSINYDGRNTYYLDSLKSRFTISRDNAKNSLYLQMNSLRAEDTAVYYCARGYYYYGSSPNYFDYWGQGTLVTVSS
VL: DIQMTQSPSSLSASVGDRVTITCRASENIYSYLTWYQQKPGKAPKLLIYNAKTLAEGVPSRFSGSGSGTDFTLTISSLQPEDFATYYCQQHYGTPLTFGQGTKLEIKR
Consider B2, for which the fold stronger than the positive control molecule in test [2] is > 4 fold.
